Biological target: T1, Full-length human His-tagged angiotensin-converting enzyme 2 (ACE2) (human, UniProt Q9BYF1)
T1 construct: also called hACE2
Test: cryo-EM structure
Conditions: both partners purified

T1 sequence (Q9BYF1 18-805): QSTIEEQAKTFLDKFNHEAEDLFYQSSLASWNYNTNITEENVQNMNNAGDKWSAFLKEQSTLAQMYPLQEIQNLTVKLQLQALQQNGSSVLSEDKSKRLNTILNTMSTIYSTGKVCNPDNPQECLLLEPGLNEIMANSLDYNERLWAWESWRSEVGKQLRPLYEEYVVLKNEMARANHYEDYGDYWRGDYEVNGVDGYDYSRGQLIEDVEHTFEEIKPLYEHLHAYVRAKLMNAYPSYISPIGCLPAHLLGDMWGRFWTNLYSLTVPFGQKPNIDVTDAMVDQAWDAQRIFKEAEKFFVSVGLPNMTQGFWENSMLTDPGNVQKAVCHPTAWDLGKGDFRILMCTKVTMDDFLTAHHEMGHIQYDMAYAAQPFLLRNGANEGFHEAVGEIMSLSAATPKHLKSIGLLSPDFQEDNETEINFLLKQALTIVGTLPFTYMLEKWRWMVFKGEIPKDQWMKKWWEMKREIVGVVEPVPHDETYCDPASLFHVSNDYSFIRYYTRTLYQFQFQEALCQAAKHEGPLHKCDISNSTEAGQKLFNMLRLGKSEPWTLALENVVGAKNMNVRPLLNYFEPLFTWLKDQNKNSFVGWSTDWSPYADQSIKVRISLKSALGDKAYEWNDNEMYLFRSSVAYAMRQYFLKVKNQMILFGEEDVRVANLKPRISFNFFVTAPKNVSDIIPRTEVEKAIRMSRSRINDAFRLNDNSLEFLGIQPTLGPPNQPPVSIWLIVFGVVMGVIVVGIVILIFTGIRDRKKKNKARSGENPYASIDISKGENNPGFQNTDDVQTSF

B1: Full-length human Flag-tagged SIT1 (SLC6A20) (natural protein)
chain: MEKARPLWANSLQFVFACISYAVGLGNVWRFPYLCQMYGGGSFLVPYIIMLIVEGMPLLYLELAVGQRMRQGSIGAWRTISPYLSGVGVASVVVSFFLSMYYNVINAWAFWYLFHSFQDPLPWSVCPLNGNHTGYDEECEKASSTQYFWYRKTLNISPSLQENGGVQWEPALCLLLAWLVVYLCILRGTESTGKVVYFTASLPYCVLIIYLIRGLTLHGATNGLMYMFTPKIEQLANPKAWINAATQIFFSLGLGFGSLIAFASYNEPSNNCQKHAIIVSLINSFTSIFASIVTFSIYGFKATFNYENCLKKVSLLLTNTFDLEDGFLTASNLEQVKGYLASAYPSKYSEMFPQIKNCSLESELDTAVQGTGLAFIVYTEAIKNMEVSQLWSVLYFFMLLMLGIGSMLGNTAAILTPLTDSKIISSHLPKEAISGLVCLVNCAIGMVFTMEAGNYWFDIFNDYAATLSLLLIVLVETIAVCYVYGLRRFESDLKAMTGRAVSWYWKVMWAGVSPLLIVSLFVFYLSDYILTGTLKYQAWDASQGQLVTKDYPAYALAVIGLLVASSTMCIPLAALGTFVQRRLKRGDADPVA
binding result: binds

— paper PMC9667838 (Cell Discovery, 2022)
